In data set [1] the target is T1, Ultrabithorax isoform IVa (UbxIVa);Extradenticle (Exd);Homothorax HM domain (HthHM) (Drosophila melanogaster?;Drosophila …, UniProt P83949-5;P40427;O46339 1-346;1-376;1-211, ||). The experiment in a line: EMSA; increased with high-affinity overlapping site; EMSA: 6 nM 32P dsDNA probe, 200 nM Exd-HM, 30-180 nM Hox; 4% polyacrylamide gel, 120 V, 2.5 h, 4 C; buffer, salt and pH not given in material. Particulars: protein: recombinant;recombinant;recombinant; tags: His (pET21b);none (pET9a);His (pET21b); copies: 1;1;1; label: 32P. For orientation: In EMSA bound probe runs differently from free probe, usually more slowly.

The target of data set [2] is T1, Ultrabithorax isoform IVa …. Kind of data set: EMSA; strong binding; EMSA: 6 nM 32P dsDNA probe, 200 nM Exd-HM, 30-180 nM Hox; 4% polyacrylamide gel, 120 V, 2.5 h, 4 C; buffer, salt and pH not given in material. The following applies: protein: recombinant;recombinant;recombinant; tags: His (pET21b);none (pET9a);His (pET21b); copies: 1;1;1; label: 32P.

The values that follow come from paper PMC6689074, “In vivo Hox binding specificity revealed by systematic changes to a single cis regulatory module”.

T1 sequence (P83949 other isoform, or with tags, fused parts or gaps ||, chain 1 of 3): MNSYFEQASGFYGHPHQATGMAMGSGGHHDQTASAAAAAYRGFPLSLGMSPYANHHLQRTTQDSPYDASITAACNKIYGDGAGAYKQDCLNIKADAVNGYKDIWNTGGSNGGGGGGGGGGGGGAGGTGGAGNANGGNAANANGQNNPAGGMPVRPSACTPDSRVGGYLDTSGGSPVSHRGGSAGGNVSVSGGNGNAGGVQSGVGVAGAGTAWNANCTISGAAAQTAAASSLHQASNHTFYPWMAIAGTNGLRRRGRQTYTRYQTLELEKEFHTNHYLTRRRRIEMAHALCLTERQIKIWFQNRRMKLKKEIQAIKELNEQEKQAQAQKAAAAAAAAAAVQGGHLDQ
T1 sequence (P40427 whole entry, chain 2 of 3, the tested form may be a part, canonical isoform): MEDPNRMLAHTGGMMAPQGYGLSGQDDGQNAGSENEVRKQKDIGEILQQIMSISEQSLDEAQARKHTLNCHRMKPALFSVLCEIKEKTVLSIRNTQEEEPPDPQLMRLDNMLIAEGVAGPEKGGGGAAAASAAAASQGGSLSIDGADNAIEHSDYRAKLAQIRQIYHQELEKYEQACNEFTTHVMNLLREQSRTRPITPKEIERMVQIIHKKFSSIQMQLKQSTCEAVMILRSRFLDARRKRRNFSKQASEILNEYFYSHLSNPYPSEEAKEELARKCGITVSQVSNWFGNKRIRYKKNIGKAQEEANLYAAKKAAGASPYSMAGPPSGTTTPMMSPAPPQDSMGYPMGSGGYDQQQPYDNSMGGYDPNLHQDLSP
T1 sequence (O46339 1-211, chain 3 of 3): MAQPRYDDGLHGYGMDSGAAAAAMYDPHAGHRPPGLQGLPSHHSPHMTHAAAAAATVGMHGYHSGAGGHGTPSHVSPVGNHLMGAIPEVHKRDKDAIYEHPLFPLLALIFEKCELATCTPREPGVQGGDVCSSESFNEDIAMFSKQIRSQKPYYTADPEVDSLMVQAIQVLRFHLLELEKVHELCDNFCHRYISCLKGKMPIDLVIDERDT

B1: main class 1 + overlapping high-affinity class 3 oligo (dsDNA)
DNA 1: ACGGGATTTGATTGATTTATTAGAATTCGGCGACGAACGAAAGC
DNA 2: GCTTTCGTTCGTCGCCGAATTCTAATAAATCAATCAAATCCCGT
In the case of B1, the binding result in data set [1] is “binds”.

B2: mutant main + high-affinity overlapping class 3 oligo (dsDNA)
DNA 1: ACGGGATACGATTGATTTATTAGAATTCGGCGACGAACGAAAGC
DNA 2: GCTTTCGTTCGTCGCCGAATTCTAATAAATCAATCGTATCCCGT
As for B2, the binding result in data set [2] is on record as “binds”.
